The source of these data is patent publication US20210015931A1 (KOREA INSTITUTE OF SCIENCE AND TECHNOLOGY, published 2021).

In this test the target is T1, CD47 receptors on HT-29 cells (human-derived colon cancer cells) (human, UniProt Q08722 19-323).
T1 construct: whole, on cells
Nature of the test: confocal microscopy on HT-29 cells, uptake with and without CD47 antibody. Here is the method: It was investigated whether the fusion protein-siRNA complex prepared in Example 2 is effectively taken up into cells in vitro. First, 2×10⁵ HT-29 cells, which are human-derived colon cancer cells, were seeded onto a 35-mm cover glass bottom dish. Then, after adding SIRPα protein (SIRPα), CD47 siRNA or the fusion protein-siRNA complex prepared in Example 2 (SIPRα-CD47 siRNA), the cells were cultured at 37° C. for a day. Then, CD47 SiRNA was stained red by using the TOTO3 stain. Next, after treating with the fusion protein-siRNA complex separated and purified in Example 2 at a concentration of 100 pmol/mL, the cells were cultured for 4 hours in a carbon dioxide incubator at 37° C. Then, the cells were treated with a fixative and the SIRPα protein was stained green using FITC-labeled His-tag antibody. After staining the nuclei of the cells by treating with a 4′,6-diamidino-2-phenylindole (DAPI) solution for 10 minutes, fluorescence was measured by confocal microscopy.
A mixture solution of the fusion protein-siRNA complex prepared in Example 2 and the CD47 antibody (Ab) was used as a control group.

T1 sequence (Q08722 19-323): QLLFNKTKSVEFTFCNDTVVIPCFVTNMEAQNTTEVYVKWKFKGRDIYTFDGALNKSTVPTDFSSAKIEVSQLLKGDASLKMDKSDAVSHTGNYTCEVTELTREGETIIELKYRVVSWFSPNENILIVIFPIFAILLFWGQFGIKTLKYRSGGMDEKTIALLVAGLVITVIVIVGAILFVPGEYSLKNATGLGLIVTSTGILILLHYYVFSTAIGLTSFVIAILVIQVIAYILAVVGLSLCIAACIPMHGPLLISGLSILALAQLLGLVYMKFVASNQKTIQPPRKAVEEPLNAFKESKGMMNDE

B1: fusion protein-siRNA complex prepared in Example 2 (SIRPα-CD47 siRNA) (other)
chain: EEELQIIQPDKSVLVAAGETATLRCTITSLFPVGPIQWFRGAGPGRVLIYNQRQGPFPRVTTVSDTTKRNNMDFSIRIGNITPADAGTYYCIKFRKGSPDDVEFKSGAGTELSVRAKPVDGGFLGGGGCG
modifications: CD47 siRNA (sense SEQ ID NO: 17, antisense SEQ ID NO: 18) bound 1:1 through maleimide at the 3'-end of the sense strand to the thiol group of the cysteine at the end of the fusion protein
notes: The protein was expressed from pET28a in E. coli, purified on a His-tag column and detected with a His-tag antibody; also called SIPRα-CD47 siRNA; immunoregulatory protein-siRNA complex
On to B1, for which the binding result is “binds”.
